From patent US20250248376A1 (University of Texas, published 2025)
Positions count from the first letter of the chain named. Names may count otherwise.

T1: Contactin (mouse Cntn1) (mouse, UniProt P12960 21-1001)
T1 construct: whole, on cells; One entry covers both endogenous spinal cord Contactin and Contactin transfected into HEK cells; It was immunoprecipitated from lysates with anti-Contactin antibodies; also called Contactin/F3
T1 sequence (looked up): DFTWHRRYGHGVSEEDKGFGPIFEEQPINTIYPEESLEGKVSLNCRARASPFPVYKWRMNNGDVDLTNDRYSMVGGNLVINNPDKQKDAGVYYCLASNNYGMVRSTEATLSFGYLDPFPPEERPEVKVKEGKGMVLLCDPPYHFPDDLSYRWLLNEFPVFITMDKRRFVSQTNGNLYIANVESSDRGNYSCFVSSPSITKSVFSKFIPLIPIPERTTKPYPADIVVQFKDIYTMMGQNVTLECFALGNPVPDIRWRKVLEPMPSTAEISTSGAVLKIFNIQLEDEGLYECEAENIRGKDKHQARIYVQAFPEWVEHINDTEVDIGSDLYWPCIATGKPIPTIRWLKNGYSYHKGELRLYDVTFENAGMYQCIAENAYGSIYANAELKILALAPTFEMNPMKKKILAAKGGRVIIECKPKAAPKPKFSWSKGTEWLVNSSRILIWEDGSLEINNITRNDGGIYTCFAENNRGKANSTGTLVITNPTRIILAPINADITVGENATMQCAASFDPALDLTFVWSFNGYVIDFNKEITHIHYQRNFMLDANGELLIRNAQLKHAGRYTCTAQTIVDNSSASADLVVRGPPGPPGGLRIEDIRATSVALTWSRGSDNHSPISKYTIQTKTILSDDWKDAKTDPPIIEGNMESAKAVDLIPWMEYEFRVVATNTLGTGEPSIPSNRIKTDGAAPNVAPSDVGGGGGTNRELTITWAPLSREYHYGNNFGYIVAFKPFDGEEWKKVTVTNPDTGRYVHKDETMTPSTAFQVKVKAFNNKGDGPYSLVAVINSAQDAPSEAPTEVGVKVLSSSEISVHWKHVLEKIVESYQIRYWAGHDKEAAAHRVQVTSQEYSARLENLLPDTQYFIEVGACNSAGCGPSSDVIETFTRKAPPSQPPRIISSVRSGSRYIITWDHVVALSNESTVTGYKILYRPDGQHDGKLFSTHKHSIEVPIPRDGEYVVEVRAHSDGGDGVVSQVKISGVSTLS

B1: Cntnap1^C324R mutant expressed in HEK cells (site-directed mutant of pCMV-Cntnap1^Flag) (receptor)
chain: WGYYGCNEELVGPLYARSLGASSYYGLFTTARFARLHGISGWSPRIGDPNPWLQIDLMKKHRIRAVATQGAFNSWDWVTRYMLLYGDRVDSWTPFYQKGHNATFFGNVNDSAVVRHDLHYHFTARYIRIVPLAWNPRGKIGLRLGIYGCPYTSSILYFDGDDAISYRFQRGASQSLWDVFAFSFKTEEKDGLLLHTEGSQGDYVTLELQGAHLLLHMSLGSSPIQPRPGHTTVSLGGVLNDLSWHYVRVDRYGRDANFTLDGYAHHFVLNGDFERLNLENEIFIGGLVGAARKNLAYRHNFRGRIENVIYNRINIAEMAVMRHSRITFEGNVAFRCLDPVPHPINFGGPHNFVQVPGFPRRGRLAVSFRFRTWDLTGLLLFSHLGDGLGHVELMLSEGQVNVSIAQTGRKKLQFAAGYRLNDGFWHEVNFVAQENHAVISIDDVEGAEVRVSYPLLIRTGTSYFFGGCPKPASRWGCHSNQTAFHGCMELLKVDGQLVNLTLVEFRKLGYFAEVLFDTCGITDRCSPNMCEHDGRCYQSWDDFICYCELTGYKGVTCHEPLYKESCEAYRLSGKYSGNYTIDPDGSGPLKPFVVYCDIRENRAWTVVRHDRLWTTRVTGSSMDRPFLGAIQYWNASWEEVSALANASQHCEQWIEFSCYNSRLLNTAGGYPYSFWIGRNEEQHFYWGGSQPGIQRCACGLDQSCVDPALHCNCDADQPQWRTDKGLLTFVDHLPVTQVVVGDTNRSNSEAQFFLRPLRCYGDRNSWNTISFHTGAALRFPPIRANHSLDVSFYFRTSAPSGVFLENMGGPFCRWRRPYVRVELNTSRDVVFAFDIGNGDENLTVHSDDFEFNDDEWHLVRAEINVKQARLRVDHRPWVLRPMPLQTYIWLVYDQPLYVGSAELKRRPFVGCLRAMRLNGVTLNLEGRANASEGTFPNCTGHCTHPRFPCFHGGRCVERYSYYTCDCDLTAFDGPYCNHDIGGFFETGTWMRYNLQSALRSAAREFSHMLSRPVPGYEPGYVPGYDTPGYVPGYHGPGYRLPEYPRPGRPVPGYRGPVYNVTGEEVSFSFSTNSAPAVLLYVSSFVRDYMAVLIKEDGTLQLRYQLGTSPYVYQLTTRPVTDGQPHSVNITRVYRNLFIQVDYFPLTEQKFSLLVDSQLDSPKALYLGRVMETGVIDPEIQRYNTPGFSGCLSGVRFNNVAPLKTHFRTPRPMTAELAEAMRVQGELSESNCGAMPRLVSEVPPELDPWYLPPDFPYYHDDGWIAILLGFLVAFLLLGLVGMLVLFYLQNHRYKGSYHTNEPKATHDSHPGGKAPLPPSGPAQAPAPTPAPTQLPTPAPAPAPAPASGPGPRDQNLPQILEESRSE
notes: Co-transfected with Contactin cDNA; the co-IP was done on total cell lysates; also called Mouse Cntnap1^C324R clone; not shown: Flag tag inherited from pCMV-Cntnap1^Flag
B2: Cntnap1^R765C mutant expressed in HEK cells (site-directed mutant of pCMV-Cntnap1^Flag) (receptor)
chain: B1 chain with R304C, R745C
notes: Co-transfected with Contactin cDNA; the co-IP was done on total cell lysates; also called Mouse Cntnap1^R765C clone; not shown: Flag tag inherited from pCMV-Cntnap1^Flag

Molecular target: T1, Contactin (mouse Cntn1)
Test: co-IP with anti-Contactin antibodies from lysates of HEK cells co-transfected with Contactin, immunoblot for Cntnap1 (FIG. 17J)
Source text: After confirming the mutations, the wild-type Cntnap1, Cntnap1C^C324R or […] cDNAs and Contactin cDNA (MG50933-CF, SinoBiological) were co-transfected into HEK cells. Contactin surface expression was examined by immunostaining of live, non-permeabilized HEK cells followed by fixation and permeabilization and immunostaining with an anti-Cntnap1 antibody to detect the expression of Cntnap1. The wild-type Cntnap1 protein was readily localized at the cell surface of the HEK cells (FIGS. 17Ga, c), however, the surface localization of Cntnap1^C324R (FIGS. 17Ha, c), and Cntnap1^R765c (FIGS. 17Ia, c) mutant proteins was strongly affected. […] The Cntnap1 protein expression was mostly cytosolic in both Cntnap1^C324R or Cntnap1^R765C transfected HEK cells as was the Contactin localization. […] IP of cell lysates from HEK cells that co-expressed the wild-type Cntnap1, Cntnap1^C324R and Cntnap1^R765C proteins and Contactin was also carried out. The expression levels of these proteins were similar in HEK cells transfected with respective expression constructs (FIG. 17J, input).

Binder	level of Cntnap1 co-immunoprecipitated with Contactin, relative to wild-type Cntnap1 [%]
B1	60
B2	10
